Values joined by “and” are separate entries in the source; they are usually repeats but may differ in a detail not shown here. Identical values can stand only once.
Assays:
[1] = molecular target: T1, human IL-17RC, x1 splice variant, on transfected cells (human, UniProt Q8NAC3 21-791); assay: cell-based or functional assay
T1 sequence: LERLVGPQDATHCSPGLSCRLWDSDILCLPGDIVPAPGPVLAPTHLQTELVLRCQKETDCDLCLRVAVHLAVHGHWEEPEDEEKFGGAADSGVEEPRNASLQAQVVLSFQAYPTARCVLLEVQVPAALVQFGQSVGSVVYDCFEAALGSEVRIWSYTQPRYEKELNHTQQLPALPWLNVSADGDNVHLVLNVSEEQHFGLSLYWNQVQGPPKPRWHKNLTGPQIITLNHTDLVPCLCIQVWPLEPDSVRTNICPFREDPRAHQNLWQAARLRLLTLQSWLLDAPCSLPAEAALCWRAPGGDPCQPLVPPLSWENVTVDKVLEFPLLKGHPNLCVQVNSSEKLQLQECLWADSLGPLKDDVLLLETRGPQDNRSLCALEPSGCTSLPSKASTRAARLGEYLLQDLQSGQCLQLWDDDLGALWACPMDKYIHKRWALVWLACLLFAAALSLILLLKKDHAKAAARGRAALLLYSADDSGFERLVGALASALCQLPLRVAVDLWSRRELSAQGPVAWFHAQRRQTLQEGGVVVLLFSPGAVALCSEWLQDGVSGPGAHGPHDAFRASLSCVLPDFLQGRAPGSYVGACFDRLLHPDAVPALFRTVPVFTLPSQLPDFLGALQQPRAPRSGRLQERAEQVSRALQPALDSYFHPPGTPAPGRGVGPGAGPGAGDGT

[2] = molecular target: T2, human IL-17 receptor (IL-17RA) on transfected cells (human, UniProt Q96F46 33-320); assay: cell-based or functional assay
T2 sequence: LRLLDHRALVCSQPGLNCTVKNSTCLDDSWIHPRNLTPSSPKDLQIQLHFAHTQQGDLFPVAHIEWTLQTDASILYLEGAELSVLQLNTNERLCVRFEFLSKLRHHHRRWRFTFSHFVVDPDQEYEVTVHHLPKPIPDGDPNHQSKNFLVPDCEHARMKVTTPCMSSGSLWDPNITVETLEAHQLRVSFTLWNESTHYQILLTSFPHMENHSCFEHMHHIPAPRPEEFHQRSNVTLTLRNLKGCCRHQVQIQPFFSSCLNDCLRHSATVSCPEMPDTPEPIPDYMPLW

[3] = molecular target: T1, human IL-17RC, x1 splice variant, on …; assay: saturation binding, iodinated cytokine on transfected BHK cells
[4] = molecular target: T1, human IL-17RC, x1 splice variant, on …; assay: competition, 100x molar cold ligand vs 125I-IL-17A on BHK hIL-17RC cells
Procedure: (§1) Cold competitors were added in 100 fold molar excess. […] Wells were incubated on ice for 1-hour followed by two washes with PBS (Invitrogen 20012-027) and one wash with a high salt solution (1.5M NaCL, 50 mM HEPES pH 7.4). Wells were extracted with 500 ul of 0.8M NaOH for 30 min. at room temperature and counts per minute were measured in a gamma counter (Packard Cobra II A5005).

[5] = molecular target: T1, human IL-17RC, x1 splice variant, on …; assay: competition, 100x molar cold ligand vs 125I-IL-17F on BHK hIL-17RC cells
Procedure: as §1

[6] = molecular target: T1, human IL-17RC, x1 splice variant, on …; assay: saturation binding, 125I-cytokine on BHK cells; high affinity site of a two-site fit
Procedure: as §1
Transfected BHK cells were plated into 24-well dishes as in one. […] Separately, 100 fold molar excess of cold ligand was added at each dilution point. Cells were washed, extracted and counted as in one. Specific counts per minute were plotted against concentration of radiolabeled ligand added by subtracting the 100 fold excess counts from the uncompeted counts at each dilution point. These normalized data were plotted to generate saturation binding curves for each combination of radiolabeled ligand and transfected BHK cells.

B1: human IL-17F (ligand)
chain: RKIPKVGHTFFQKPESCPPVPGGSMKLDIGIINENQRVSMSRNIESRSTSPWNYTVTWDPNRYPSEVVQAQCRNLGCINAQGKEDISMNSVPIQQETLVVRRKHQGCSVSFQLEKVLVTVGCTCVTPVIHHVQ
notes: also called hIL-17F; hIL17F
EC50, luciferase in nih3t3/kz142.8/hcytor14X1 cells [1]: 0.61 ng/mL | fold more potent EC50 in the recombinant line than in the parental line [1]: 17 fold | EC50, luciferase in nih3t3/kz142.8/IL-17R cells [2]: 12.4 ng/mL | Kd [3]: 1 nM | fold reduction of 125I-IL-17A binding [4]: ~7 fold | fold reduction of 125I-IL-17F binding [5]: ~5 fold | Kd [6]: 0.05 nM and 0.06 nM and 0.08 nM

Source: patent US20110014656A1 (ZymoGenetics, published 2011)
